Results: the supplement of paper PMC12455559

Test: purified protein yield per well (BCA); higher = higher soluble expression
In short: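 Candidate enzymes were produced in E. coli C41(DE3) grown in 2 mL autoinduction cultures containing 100 µg/mL kanamycin, first at 37 °C for 2 h and then at 18 °C for 40 h. After cell lysis, protein was captured on Ni-charged magnetic beads and freed by SUMO protease cleavage on an OT-2 robot. Purified protein yield per well was read with the Pierce Rapid Gold BCA kit. Values under 25 ug (0.1 mg/mL) fall below the detection threshold.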

## VENGPAPSLASIQADGPYAVSTQTVSGSGFGGGTVYSPNTAGKYAVVAVCPGFTATQSSIAAISRRLATHGFVVVTINTTSVYDFPSSRANQLLAALRTVTALATGPVAGKMDTTRQGVAGWSMGGGGAMLAAGMTPGLKGGVAFAPWSQSNNVSRSAVPMAYLAGTADTVAPAGSHASVFYNATPATTKKLLGVITGADHNFPKTASQPASYTQVAWMKRFLDGDTRYAQFLKGDTRFTTFRSTGPF [ESM107]
  purified protein yield per well: < 25 µg

## VENGPAPTFSSVQAEGPFAVSTQTVRGSGFGGGTVYSPNTAGKYAVVAVCPGFTATQSSIALISRRLATHGFVVVTISTNSVYDYPASRANQLLAALRTVTALTTGPVAGKMDISRQGVAGWSMGGGGAMLAAGMTPGLKAGVAFAPWSLTNNVGSSSVPMAYLAGTADTVAPASSHSTVFYNAMPATTNKLIGVIQGANHYFPGTASQPASYTQVAWMKRFLDGDTRYSQFLNGDSRFATFRSTGPF [ESM102]
  purified protein yield per well: < 25 µg

## VENGPAPTLAAIQKDGPYAVTAQAIKGSGFGSGTIYVPNAAGQYALVAVCPGFVSPESSITAISKRLATHGFVVVTIATNTLLDFPSSRASQILAALKAAAGTTTGAVAGKIDVSRQVASGWSMGGGGTLEAAASTPGLVAAVAYAPWNTSSTKYKTITVPSLILGGTADVIAPVAQHSQPFYNAIPATTPKMLAVIQGASHFFPNSAGEPQSYTNISWVKRFADGDTRYGTFLNTKDAAFSTVQSTGPF [ESM089]
  purified protein yield per well: < 25 µg

## VENGPAPTLAALKADGPYAITSQAVPGNGFGAGTVYVPTAAGKYALVAICPGFVSAQSTMTDMAKRLATHGFVVVAISTNTLLDFPPSRASQLLAALKATASLTSGPVVGKIDTSRQAVSGWSMGGGGTLEAAGSTPGLMAAVAFAPWDTSTTKMKVDKVPAAIIGGSSDVIAPVSSHSQPFYNAIPSTTPKLLAVISGASHFFPTTASEPASYTNISWMKRFADGDTRYSQFLNGNDAALSSFTSNGPF [ESM092]
  purified protein yield per well: < 25 µg

## VENGPAPTLASVQADGPYAVSTQSVSGTGFGGGTVYSPNTAGKYAVVAVCPGFTATQSSIAAISRRLATHGFVVVTINTKSTYDFPPSRANQILAALRTVTALTTGPVAGKMDISRQGVAGWSMGGGGAMLAAGMTPGLKGGVAFAPWAQSSNVSSSAVPMSYLAGSADGVAPPSMSTSFYNATPGTTRKMLGVIRGADHNFPKTASQPASYTQVAWMKRFLDSDTRYSQFLNGDSRFSTFRSTGPF [ESM088]
  purified protein yield per well: < 25 µg

## VENGPAPTVSSVRADAGSYSVSKTSYADNVTPGFGAATVYAPSNTTGQKFGVVSFAPGWTENQSAVDWIARRTASFGFVTIVFDVNNTFFDFPAARAPQLIAALNFVTGTSNQRNLADASREAVVGHSMGGGATLDAARANPSLKATVGLAPWNPGISYSDVTVPSLEIGAQNDFIAGVSNNARYFYNSLPGSTPKAYTEMKSFGHLQTNYPSAQVGAATVSWLKRYVDGDTRYAPFICGAHTGVQNSELSAYASNC [ESM168]
  purified protein yield per well: < 25 µg

## VENGPVPTLADLKKDGPYAVTSQKVAGSGFGSGTIYSPNTAGKYALVAVCPGFVSAESSITDISRRLATHGFVVITIGTKTLLDFPSSRATQLLAALKTATTTTTGPVVGKIDTARQVVSGWSMGGGGTLEAAGITPGLKAAVAYAPWHSTTTKIKTSTVPSIIFGATGDVVAPVASHSQKFYDVLPTSTKKQLAVLQGSNHFFPNSAIEPVSYSNISWVKRFADGDTRYSQFLSVADPAWSKVQSNGPF [ESM166]
  purified protein yield per well: < 25 µg

## VPAPPAVERGPAPTPASVTAAVGPHAVITAAVRRADVAGFGGGTLLAPADAAGGPYGVVAVAPGFREGAATLAWLGPRLASRGFVVLLVDTLDPDEFPTARAAELLAAIDWVVADSPVRDRADPARAAVLGHSMGGGAALEAALARPGLRAAIPMAPWDPAADFAGVRVPTLVLAAEDDTIAPPAEHAERFYASLTAPARAYALLPGRDHDFSNAPDDVTAGLVLSWLARFVDGDTRYTRLLCRGTLSAAVASQQDTCPAP [TEP074]
  purified protein yield per well: < 25 µg

## VQIGPAPTSAALNKDGSFSVSSSSVSMLSARGFGSGTIYYPSTSGQYGVIAVCPGFTGTSSSISWFARRLASHGFVTIAMNTTTTLDQPASRATQLAAALKYVLNSSSSTVRSRIRAADRGVAGHSMGGGGTLIASQSDSTLRVGIPMTPWNLSTNFSSVKVPQMIFGADGDTIAPYASHARPFYNSLSKAPKAYGLLKSATHFTPNATDQRIGRYGVAFAKRFVDGDTRYSPFLCGSEHNSYATSSKFATYLSNCPY [ESM148]
  purified protein yield per well: < 25 µg
